{
  "source": "patent US20100119506A1",
  "about": "(published 2010)",
  "key": {"Human PAR-2 on cells [1]": {"biological_target": "T1, Human PAR-2 on cells (human, UniProt P55085 26-397)", "T1 sequence": "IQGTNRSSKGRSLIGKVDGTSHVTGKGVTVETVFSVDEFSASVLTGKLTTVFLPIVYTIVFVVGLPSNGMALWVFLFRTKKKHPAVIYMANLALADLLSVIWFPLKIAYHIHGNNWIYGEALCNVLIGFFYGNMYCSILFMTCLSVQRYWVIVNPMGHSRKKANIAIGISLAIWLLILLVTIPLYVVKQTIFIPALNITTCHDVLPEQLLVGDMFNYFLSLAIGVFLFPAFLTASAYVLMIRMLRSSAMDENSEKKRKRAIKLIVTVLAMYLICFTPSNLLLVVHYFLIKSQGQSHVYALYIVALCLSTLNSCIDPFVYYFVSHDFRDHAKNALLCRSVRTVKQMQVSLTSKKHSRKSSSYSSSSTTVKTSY", "assay": "cell-based or functional assay"}, "[2]": {"biological_target": "T2, Mouse PAR-2 (endogenous, LLC cells and mouse aortic rings) (mouse, UniProt P55086 39-399)", "T2 sequence (looked up)": "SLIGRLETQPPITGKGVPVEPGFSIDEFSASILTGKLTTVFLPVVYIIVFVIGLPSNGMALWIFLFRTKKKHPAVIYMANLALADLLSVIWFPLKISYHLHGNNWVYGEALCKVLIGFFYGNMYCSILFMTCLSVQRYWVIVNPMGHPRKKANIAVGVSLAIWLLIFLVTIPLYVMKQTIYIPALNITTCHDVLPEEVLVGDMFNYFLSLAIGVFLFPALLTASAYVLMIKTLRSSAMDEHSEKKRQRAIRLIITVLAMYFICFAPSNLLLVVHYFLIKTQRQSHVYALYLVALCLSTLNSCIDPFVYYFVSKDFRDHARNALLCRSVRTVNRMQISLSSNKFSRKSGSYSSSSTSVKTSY", "assay": "cell-based or functional assay"}, "[3]": {"biological_target": "T3, Rat PAR-2 (endogenous, ARIP cells and rat aortic rings) (rat, UniProt Q63645 37-397)", "T3 sequence (looked up)": "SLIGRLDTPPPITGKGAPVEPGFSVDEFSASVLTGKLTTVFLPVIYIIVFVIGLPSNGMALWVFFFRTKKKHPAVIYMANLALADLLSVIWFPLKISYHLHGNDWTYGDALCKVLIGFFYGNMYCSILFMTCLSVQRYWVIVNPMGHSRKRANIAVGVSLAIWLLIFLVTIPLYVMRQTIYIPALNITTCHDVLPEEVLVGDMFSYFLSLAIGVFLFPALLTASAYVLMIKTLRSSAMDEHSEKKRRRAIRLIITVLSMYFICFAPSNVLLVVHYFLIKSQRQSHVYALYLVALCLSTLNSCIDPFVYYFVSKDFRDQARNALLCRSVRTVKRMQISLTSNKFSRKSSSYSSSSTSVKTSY", "assay": "cell-based or functional assay"}, "[4]": {"biological_target": "T4, Human PAR-2 peptide (SEQ ID NO:1, Residues 33-54) (human)", "T4 peptide": "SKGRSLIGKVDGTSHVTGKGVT", "assay": "Kinexa, peptide in solution", "experimental": "(§1) Binding to peptide in solution was determined by Kinexa technology."}, "Murine PAR-2 peptide [5]": {"biological_target": "T5, Murine PAR-2 peptide (murine)", "T5 construct": "also called mouse PAR-2 peptide", "T5 peptide": "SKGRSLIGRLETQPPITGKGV", "assay": "Kinexa, peptide in solution", "experimental": "as §1"}, "Rat PAR-2 peptide [6]": {"biological_target": "T6, Rat PAR-2 peptide (rat)", "T6 peptide": "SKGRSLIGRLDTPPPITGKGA", "assay": "Kinexa, peptide in solution", "experimental": "as §1"}, "Cynomolgus PAR-2 peptide": {"biological_target": "T7, Cynomolgus PAR-2 peptide (cynomolgus)", "T7 peptide": "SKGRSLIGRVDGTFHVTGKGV", "assay": "Kinexa, peptide in solution", "experimental": "as §1"}, "Rat PAR-2 peptide [7]": {"biological_target": "T6, Rat PAR-2 peptide", "assay": "Rat PAR-2 Peptide Binding (Kinexa)", "experimental": "as §1"}, "Murine PAR-2 peptide [8]": {"biological_target": "T5, Murine PAR-2 peptide", "assay": "Mouse PAR-2 Peptide Binding (Kinexa)", "experimental": "as §1"}, "Human PAR-2 on cells [9]": {"biological_target": "T1, Human PAR-2 on cells", "assay": "binding to human PAR-2 transfected HEK293 cells"}},
  "data": [
    {"binder": "Antibody Par-B (antibody, V domains shown, Codon-optimized version of Ab4999 made in CHO-DG44) VH: QVELVESGGGLVQPGGSLRLSCAASGFTFSSYAMNWVRQAPGKGLEWVSTISYSSSATSYADSVKGRFTISRDNSKNTLYLQMNSLRAEDTAVYYCARIQNDPMDVWGQGTLVTVSS VL: DIELTQPPSVSVAPGQTARISCSGDNLGKKYVQWYQQKPGQAPVLVIYDDSNRPSGIPERFSGSNSGNTATLTISGTQAEDEADYYCQTWDYSSIRDETNVFGGGTKLTVLG", "values": [
      {"measurement": "Human Keratinocyte/IL-8 assay IC50", "setting": "Human PAR-2 on cells [1]", "result": "~100", "unit": "nM"},
      {"measurement": "Mouse Aortic Ring Assay, shift of EC50 (Trypsin)", "setting": "[2]", "result": "~5", "unit": "fold"},
      {"measurement": "Mouse Cell Line FLIPR IC50", "setting": "[2]", "result": "~0.4", "unit": "nM"},
      {"measurement": "Rat Aortic Ring Assay, shift of EC50 (Trypsin)", "setting": "[3]", "result": "~8", "unit": "fold"},
      {"measurement": "Kd", "setting": "[4]", "result": 0.08, "unit": "nM"},
      {"measurement": "Kd", "setting": "Murine PAR-2 peptide [5]", "result": 0.08, "unit": "nM"},
      {"measurement": "Kd", "setting": "Rat PAR-2 peptide [6]", "result": 0.02, "unit": "nM"},
      {"measurement": "Kd", "setting": "Cynomolgus PAR-2 peptide", "result": 0.04, "unit": "nM"},
      {"measurement": "Kd", "setting": "Rat PAR-2 peptide [7]", "result": 0.02, "unit": "nM"},
      {"measurement": "fold vs. human peptide", "setting": "Rat PAR-2 peptide [7]", "result": 4, "unit": "fold"},
      {"measurement": "Kd", "setting": "Murine PAR-2 peptide [8]", "result": 0.08, "unit": "nM"},
      {"measurement": "fold vs. human peptide", "setting": "Murine PAR-2 peptide [8]", "result": 1, "unit": "fold"},
      {"measurement": "EC50", "setting": "Human PAR-2 on cells [9]", "result": "~0.3", "unit": "nM"}
    ]}
  ]
}
